Data: patent publication US20180155451A1 (published 2018)

T1: FcγRIIb extracellular domain with C-terminal His tag (human, UniProt P31994 43-217)
T1 construct: extracellular domain; expressed in FreeStyle293 cells; analyte in the Biacore assay; also called FcgRIIb; 2b; not shown: His tag at the C terminus
T1 sequence (looked up): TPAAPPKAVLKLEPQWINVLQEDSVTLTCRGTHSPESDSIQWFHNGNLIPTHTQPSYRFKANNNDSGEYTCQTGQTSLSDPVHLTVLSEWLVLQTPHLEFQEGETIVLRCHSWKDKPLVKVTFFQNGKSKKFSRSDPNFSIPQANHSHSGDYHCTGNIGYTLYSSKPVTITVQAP

B1: GpH7-B3 variant K334_01G/GpL16-k0 (antibody, human IgG1, kappa)
heavy: not shown
light: DIVMTQSPLSLPVTPGEPASISCQASESLVHSNRNTYLHWYLQKPGQSPQLLIYKVSNRFSGVPDRFSGSGSGTDFTLKISRVEAEDVGVYYCSQNTHVPPTFGQGTKVEIERTVAAPSVFIFPPSDEQLKSGTASVVCLLNNFYPREAKVQWKVDNALQSGNSQESVTEQDSKDSTYSLSSTLTLSKADYEKHKVYACEVTHQGLSSPVTKSFNRGEC
notes: homodimerized IgG1, mutation in both H chains; also called Ho Ab
B2: GpH7-B3 variant I332_15Y/GpL16-k0 (antibody, human IgG1, kappa)
heavy: not shown
light: B1 light
notes: as for B1
B3: GpH7-B3 variant K326_08L/GpL16-k0 (antibody, human IgG1, kappa)
heavy: not shown
light: B1 light
notes: as for B1
B4: GpH7-B3 variant I336_13S/GpL16-k0 (antibody, human IgG1, kappa)
heavy: not shown
light: B1 light
notes: as for B1
B5: GpH7-B3 variant I336_06M/GpL16-k0 (antibody, human IgG1, kappa)
heavy: not shown
light: B1 light
notes: as for B1
B6: GpH7-B3 variant I332_01G/GpL16-k0 (antibody, human IgG1, kappa)
heavy: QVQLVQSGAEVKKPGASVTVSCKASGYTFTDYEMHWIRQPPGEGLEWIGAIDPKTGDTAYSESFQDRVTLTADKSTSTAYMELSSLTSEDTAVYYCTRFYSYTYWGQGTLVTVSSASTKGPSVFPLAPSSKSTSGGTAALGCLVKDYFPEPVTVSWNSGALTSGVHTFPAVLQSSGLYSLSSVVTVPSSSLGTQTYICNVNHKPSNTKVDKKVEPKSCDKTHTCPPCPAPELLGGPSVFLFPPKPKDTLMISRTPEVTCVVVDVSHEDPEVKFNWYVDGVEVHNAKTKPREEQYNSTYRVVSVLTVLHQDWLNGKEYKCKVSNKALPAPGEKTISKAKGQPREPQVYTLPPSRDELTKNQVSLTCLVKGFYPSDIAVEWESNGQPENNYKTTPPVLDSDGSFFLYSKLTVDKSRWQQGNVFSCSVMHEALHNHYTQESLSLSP
light: B1 light
notes: as for B1
B7: GpH7-B3 variant I336_10E/GpL16-k0 (antibody, human IgG1, kappa)
heavy: not shown
light: B1 light
notes: as for B1
B8: GpH7-B3 variant H268_10E/GpL16-k0 (antibody, human IgG1, kappa)
heavy: not shown
light: B1 light
notes: as for B1
B9: GpH7-B3 variant I336_18N/GpL16-k0 (antibody, human IgG1, kappa)
heavy: not shown
light: B1 light
notes: as for B1
B10: GpH7-B3 variant A330_04F/GpL16-k0 (antibody, human IgG1, kappa)
heavy: not shown
light: B1 light
notes: as for B1
B11: GpH7-B3 variant K334_02A/GpL16-k0 (antibody, human IgG1, kappa)
heavy: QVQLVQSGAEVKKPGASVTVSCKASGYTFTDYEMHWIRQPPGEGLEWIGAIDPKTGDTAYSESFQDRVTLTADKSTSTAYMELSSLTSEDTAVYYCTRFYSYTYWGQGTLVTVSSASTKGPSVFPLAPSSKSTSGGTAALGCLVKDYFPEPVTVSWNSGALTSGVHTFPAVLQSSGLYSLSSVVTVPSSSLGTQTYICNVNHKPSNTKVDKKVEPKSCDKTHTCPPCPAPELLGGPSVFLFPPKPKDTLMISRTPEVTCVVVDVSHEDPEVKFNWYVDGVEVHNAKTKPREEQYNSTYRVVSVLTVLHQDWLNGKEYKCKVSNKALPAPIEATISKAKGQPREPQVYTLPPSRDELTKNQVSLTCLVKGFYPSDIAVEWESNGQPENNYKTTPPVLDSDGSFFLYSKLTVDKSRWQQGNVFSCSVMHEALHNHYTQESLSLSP
light: B1 light
notes: as for B1
B12: GpH7-B3 variant K326_15Y/GpL16-k0 (antibody, human IgG1, kappa)
heavy: not shown
light: B1 light
notes: as for B1
B13: GpH7-B3 variant K326_10E/GpL16-k0 (antibody, human IgG1, kappa)
heavy: not shown
light: B1 light
notes: as for B1
B14: GpH7-B3 variant I336_03V/GpL16-k0 (antibody, human IgG1, kappa)
heavy: not shown
light: B1 light
notes: as for B1
B15: GpH7-B3 variant I336_02A/GpL16-k0 (antibody, human IgG1, kappa)
heavy: not shown
light: B1 light
notes: as for B1
B16: GpH7-B3 variant K334_03V/GpL16-k0 (antibody, human IgG1, kappa)
heavy: not shown
light: B1 light
notes: as for B1
B17: GpH7-B3 variant K326_03V/GpL16-k0 (antibody, human IgG1, kappa)
heavy: not shown
light: B1 light
notes: as for B1
B18: GpH7-B3 variant H268_09D/GpL16-k0 (antibody, human IgG1, kappa)
heavy: not shown
light: B1 light
notes: as for B1
B19: GpH7-B3 variant H268_13S/GpL16-k0 (antibody, human IgG1, kappa)
heavy: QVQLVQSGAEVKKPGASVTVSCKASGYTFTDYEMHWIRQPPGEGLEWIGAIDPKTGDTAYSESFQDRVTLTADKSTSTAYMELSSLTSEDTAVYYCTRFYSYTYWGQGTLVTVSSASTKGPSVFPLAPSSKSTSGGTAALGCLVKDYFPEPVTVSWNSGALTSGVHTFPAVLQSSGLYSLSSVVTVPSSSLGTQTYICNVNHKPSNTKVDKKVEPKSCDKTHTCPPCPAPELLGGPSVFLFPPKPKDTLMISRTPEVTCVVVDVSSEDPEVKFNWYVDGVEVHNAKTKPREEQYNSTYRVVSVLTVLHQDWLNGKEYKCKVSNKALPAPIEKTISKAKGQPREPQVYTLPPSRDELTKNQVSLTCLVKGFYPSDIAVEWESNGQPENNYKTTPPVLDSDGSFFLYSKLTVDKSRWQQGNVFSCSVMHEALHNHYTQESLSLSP
light: B1 light
notes: as for B1
B20: GpH7-B3 variant I332_14T/GpL16-k0 (antibody, human IgG1, kappa)
heavy: not shown
light: B1 light
notes: as for B1
B21: GpH7-B3 variant I332_09D/GpL16-k0 (antibody, human IgG1, kappa)
heavy: not shown
light: B1 light
notes: as for B1
B22: GpH7-B3 variant I332_13S/GpL16-k0 (antibody, human IgG1, kappa)
heavy: not shown
light: B1 light
notes: as for B1
B23: GpH7-B3 variant I332_19Q/GpL16-k0 (antibody, human IgG1, kappa)
heavy: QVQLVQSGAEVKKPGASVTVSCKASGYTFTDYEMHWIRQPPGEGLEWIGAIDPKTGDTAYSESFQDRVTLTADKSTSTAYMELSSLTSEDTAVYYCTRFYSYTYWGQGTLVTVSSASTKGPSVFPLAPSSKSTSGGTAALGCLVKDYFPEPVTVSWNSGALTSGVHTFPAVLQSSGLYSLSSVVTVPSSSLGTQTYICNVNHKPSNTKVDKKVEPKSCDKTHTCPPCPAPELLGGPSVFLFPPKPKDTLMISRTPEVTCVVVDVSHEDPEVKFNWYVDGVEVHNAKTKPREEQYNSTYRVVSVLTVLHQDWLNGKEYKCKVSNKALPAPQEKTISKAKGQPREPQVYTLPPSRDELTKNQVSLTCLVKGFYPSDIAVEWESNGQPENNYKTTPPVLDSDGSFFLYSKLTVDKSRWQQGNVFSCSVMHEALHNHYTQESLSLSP
light: B1 light
notes: as for B1
B24: GpH7-B3 variant K326_19Q/GpL16-k0 (antibody, human IgG1, kappa)
heavy: not shown
light: B1 light
notes: as for B1
B25: GpH7-B3 variant K326_09D/GpL16-k0 (antibody, human IgG1, kappa)
heavy: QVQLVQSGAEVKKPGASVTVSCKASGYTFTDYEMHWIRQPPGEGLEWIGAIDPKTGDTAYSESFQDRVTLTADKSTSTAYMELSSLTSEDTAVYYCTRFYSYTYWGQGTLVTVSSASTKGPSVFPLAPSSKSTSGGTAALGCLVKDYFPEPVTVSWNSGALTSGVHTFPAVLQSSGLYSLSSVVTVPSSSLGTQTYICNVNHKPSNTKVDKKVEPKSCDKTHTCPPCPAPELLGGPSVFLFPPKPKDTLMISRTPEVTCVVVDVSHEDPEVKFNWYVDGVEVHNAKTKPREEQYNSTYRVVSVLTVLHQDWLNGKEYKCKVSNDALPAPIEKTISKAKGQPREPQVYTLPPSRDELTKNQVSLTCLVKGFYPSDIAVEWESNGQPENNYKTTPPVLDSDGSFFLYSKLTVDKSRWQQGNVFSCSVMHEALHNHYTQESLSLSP
light: B1 light
notes: as for B1
B26: GpH7-B3 variant I336_14T/GpL16-k0 (antibody, human IgG1, kappa)
heavy: not shown
light: B1 light
notes: as for B1
B27: GpH7-B3 variant A330_20W/GpL16-k0 (antibody, human IgG1, kappa)
heavy: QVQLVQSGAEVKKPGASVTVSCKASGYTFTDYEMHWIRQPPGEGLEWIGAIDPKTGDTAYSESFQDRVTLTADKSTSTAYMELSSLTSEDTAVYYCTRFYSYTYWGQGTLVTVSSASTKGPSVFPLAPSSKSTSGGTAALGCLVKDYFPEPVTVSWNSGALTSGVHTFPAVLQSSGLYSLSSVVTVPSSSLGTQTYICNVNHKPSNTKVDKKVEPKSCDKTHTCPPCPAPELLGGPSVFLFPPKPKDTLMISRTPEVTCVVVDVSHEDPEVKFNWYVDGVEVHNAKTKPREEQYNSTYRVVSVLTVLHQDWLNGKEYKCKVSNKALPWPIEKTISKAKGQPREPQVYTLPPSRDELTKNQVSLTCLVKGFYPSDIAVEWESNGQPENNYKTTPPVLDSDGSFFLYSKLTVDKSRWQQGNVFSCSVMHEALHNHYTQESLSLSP
light: B1 light
notes: as for B1
B28: GpH7-B3 variant K326_06M/GpL16-k0 (antibody, human IgG1, kappa)
heavy: not shown
light: B1 light
notes: as for B1
B29: GpH7-B3 variant I336_09D/GpL16-k0 (antibody, human IgG1, kappa)
heavy: not shown
light: B1 light
notes: as for B1
B30: GpH7-B3 variant K326_07I/GpL16-k0 (antibody, human IgG1, kappa)
heavy: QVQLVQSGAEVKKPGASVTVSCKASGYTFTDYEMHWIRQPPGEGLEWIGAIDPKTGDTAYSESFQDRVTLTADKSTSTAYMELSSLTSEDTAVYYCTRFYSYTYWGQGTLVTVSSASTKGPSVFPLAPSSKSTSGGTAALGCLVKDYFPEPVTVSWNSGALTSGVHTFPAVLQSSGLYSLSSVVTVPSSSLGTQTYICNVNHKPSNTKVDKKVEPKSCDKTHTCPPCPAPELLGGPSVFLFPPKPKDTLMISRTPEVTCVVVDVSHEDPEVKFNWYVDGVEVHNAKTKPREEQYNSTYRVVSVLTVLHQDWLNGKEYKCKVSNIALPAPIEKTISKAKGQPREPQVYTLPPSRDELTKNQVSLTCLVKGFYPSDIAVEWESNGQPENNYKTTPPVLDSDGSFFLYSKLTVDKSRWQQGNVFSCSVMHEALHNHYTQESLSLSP
light: B1 light
notes: as for B1
B31: GpH7-B3 variant E333_16H/GpL16-k0 (antibody, human IgG1, kappa)
heavy: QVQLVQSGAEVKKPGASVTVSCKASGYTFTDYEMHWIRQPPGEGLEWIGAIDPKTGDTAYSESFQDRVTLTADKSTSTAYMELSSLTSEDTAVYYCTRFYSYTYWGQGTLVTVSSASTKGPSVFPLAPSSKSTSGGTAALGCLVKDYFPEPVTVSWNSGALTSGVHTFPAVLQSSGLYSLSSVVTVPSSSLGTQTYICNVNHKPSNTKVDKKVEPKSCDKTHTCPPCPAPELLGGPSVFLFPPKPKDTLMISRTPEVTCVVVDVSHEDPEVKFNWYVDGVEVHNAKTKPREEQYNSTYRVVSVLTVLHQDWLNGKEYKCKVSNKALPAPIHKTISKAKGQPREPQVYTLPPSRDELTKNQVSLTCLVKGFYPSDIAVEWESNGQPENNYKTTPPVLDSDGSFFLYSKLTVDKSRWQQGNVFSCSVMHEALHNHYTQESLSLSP
light: B1 light
notes: as for B1
B32: GpH7-B3 variant I332_02A/GpL16-k0 (antibody, human IgG1, kappa)
heavy: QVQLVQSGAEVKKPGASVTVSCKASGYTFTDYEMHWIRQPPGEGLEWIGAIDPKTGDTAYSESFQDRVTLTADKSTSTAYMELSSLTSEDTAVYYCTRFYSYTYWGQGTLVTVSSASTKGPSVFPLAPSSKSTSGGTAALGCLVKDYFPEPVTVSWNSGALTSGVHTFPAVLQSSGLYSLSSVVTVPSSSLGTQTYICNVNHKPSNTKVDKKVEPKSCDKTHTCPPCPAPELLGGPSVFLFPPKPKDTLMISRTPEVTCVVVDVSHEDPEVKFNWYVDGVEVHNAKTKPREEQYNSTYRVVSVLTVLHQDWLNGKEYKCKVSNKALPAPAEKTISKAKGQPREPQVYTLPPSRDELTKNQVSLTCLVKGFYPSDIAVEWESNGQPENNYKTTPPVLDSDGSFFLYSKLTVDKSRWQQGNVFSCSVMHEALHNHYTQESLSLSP
light: B1 light
notes: as for B1
B33: GpH7-B3 variant I332_10E/GpL16-k0 (antibody, human IgG1, kappa)
heavy: not shown
light: B1 light
notes: as for B1
B34: GpH7-B3 variant K326_14T/GpL16-k0 (antibody, human IgG1, kappa)
heavy: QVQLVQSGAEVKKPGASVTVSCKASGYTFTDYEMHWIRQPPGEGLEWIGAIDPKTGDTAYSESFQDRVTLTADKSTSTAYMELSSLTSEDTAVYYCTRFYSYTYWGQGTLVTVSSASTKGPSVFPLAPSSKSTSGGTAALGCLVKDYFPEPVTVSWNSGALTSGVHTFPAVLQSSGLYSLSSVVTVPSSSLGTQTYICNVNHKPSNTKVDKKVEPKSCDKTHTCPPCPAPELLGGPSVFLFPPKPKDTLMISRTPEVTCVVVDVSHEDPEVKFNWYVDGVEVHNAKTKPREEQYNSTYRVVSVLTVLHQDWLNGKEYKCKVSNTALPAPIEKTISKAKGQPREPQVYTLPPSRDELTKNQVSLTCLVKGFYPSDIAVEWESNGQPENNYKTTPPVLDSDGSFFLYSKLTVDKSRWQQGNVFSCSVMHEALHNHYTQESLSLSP
light: B1 light
notes: as for B1
B35: GpH7-B3 variant A330_08L/GpL16-k0 (antibody, human IgG1, kappa)
heavy: not shown
light: B1 light
notes: as for B1
B36: GpH7-B3 variant K326_04F/GpL16-k0 (antibody, human IgG1, kappa)
heavy: not shown
light: B1 light
notes: as for B1
B37: GpH7-A5/GpH7-B3 variant K334_14T/GpL16-k0 (antibody, human IgG1, kappa)
heavy 1: not shown
heavy 2: not shown
light: B1 light
notes: heterodimerized; mutation in the B3 H chain only; also called He Ab K334_14T
B38: GpH7-A5/GpH7-B3 variant P238_15Y/GpL16-k0 (antibody, human IgG1, kappa)
heavy 1: not shown
heavy 2: not shown
light: B1 light
notes: heterodimerized; mutation in the B3 H chain only; also called He Ab P238_15Y
B39: GpH7-A5/GpH7-B3 variant S267_19Q/GpL16-k0 (antibody, human IgG1, kappa)
heavy 1: not shown
heavy 2: not shown
light: B1 light
notes: heterodimerized; mutation in the B3 H chain only; also called He Ab S267_19Q
B40: GpH7-A5/GpH7-B3 variant S239_10E/GpL16-k0 (antibody, human IgG1, kappa)
heavy 1: not shown
heavy 2: not shown
light: B1 light
notes: heterodimerized; mutation in the B3 H chain only; also called He Ab S239_10E
B41: GpH7-A5/GpH7-B3 variant L235_20W/GpL16-k0 (antibody, human IgG1, kappa)
heavy 1: not shown
heavy 2: not shown
light: B1 light
notes: heterodimerized; mutation in the B3 H chain only; also called He Ab L235_20W
B42: GpH7-A5/GpH7-B3 variant P331_20W/GpL16-k0 (antibody, human IgG1, kappa)
heavy 1: not shown
heavy 2: not shown
light: B1 light
notes: heterodimerized; mutation in the B3 H chain only; also called He Ab P331_20W
B43: GpH7-A5/GpH7-B3 variant S267_06M/GpL16-k0 (antibody, human IgG1, kappa)
heavy 1: not shown
heavy 2: not shown
light: B1 light
notes: heterodimerized; mutation in the B3 H chain only; also called He Ab S267_06M
B44: GpH7-A5/GpH7-B3 variant T335_07I/GpL16-k0 (antibody, human IgG1, kappa)
heavy 1: not shown
heavy 2: not shown
light: B1 light
notes: heterodimerized; mutation in the B3 H chain only; also called He Ab T335_07I
B45: GpH7-A5/GpH7-B3 variant S324_06M/GpL16-k0 (antibody, human IgG1, kappa)
heavy 1: not shown
heavy 2: not shown
light: B1 light
notes: heterodimerized; mutation in the B3 H chain only; also called He Ab S324_06M
B46: GpH7-A5/GpH7-B3 variant V266_06M/GpL16-k0 (antibody, human IgG1, kappa)
heavy 1: not shown
heavy 2: not shown
light: B1 light
notes: heterodimerized; mutation in the B3 H chain only; also called He Ab V266_06M
B47: GpH7-A5/GpH7-B3 variant P238_04F/GpL16-k0 (antibody, human IgG1, kappa)
heavy 1: not shown
heavy 2: not shown
light: B1 light
notes: heterodimerized; mutation in the B3 H chain only; also called He Ab P238_04F
B48: GpH7-A5/GpH7-B3 variant Y296_20W/GpL16-k0 (antibody, human IgG1, kappa)
heavy 1: not shown
heavy 2: not shown
light: B1 light
notes: heterodimerized; mutation in the B3 H chain only; also called He Ab Y296_20W
B49: GpH7-A5/GpH7-B3 variant P331_16H/GpL16-k0 (antibody, human IgG1, kappa)
heavy 1: not shown
heavy 2: not shown
light: B1 light
notes: heterodimerized; mutation in the B3 H chain only; also called He Ab P331_16H
B50: GpH7-A5/GpH7-B3 variant L328_02A/GpL16-k0 (antibody, human IgG1, kappa)
heavy 1: not shown
heavy 2: not shown
light: B1 light
notes: heterodimerized; mutation in the B3 H chain only; also called He Ab L328_02A
B51: GpH7-A5/GpH7-B3 variant S239_03V/GpL16-k0 (antibody, human IgG1, kappa)
heavy 1: not shown
heavy 2: not shown
light: B1 light
notes: heterodimerized; mutation in the B3 H chain only; also called He Ab S239_03V
B52: GpH7-A5/GpH7-B3 variant P331_15Y/GpL16-k0 (antibody, human IgG1, kappa)
heavy 1: not shown
heavy 2: not shown
light: B1 light
notes: heterodimerized; mutation in the B3 H chain only; also called He Ab P331_15Y
B53: GpH7-A5/GpH7-B3 variant T335_15Y/GpL16-k0 (antibody, human IgG1, kappa)
heavy 1: not shown
heavy 2: not shown
light: B1 light
notes: heterodimerized; mutation in the B3 H chain only; also called He Ab T335_15Y
B54: GpH7-A5/GpH7-B3 variant S337_16H/GpL16-k0 (antibody, human IgG1, kappa)
heavy 1: not shown
heavy 2: not shown
light: B1 light
notes: heterodimerized; mutation in the B3 H chain only; also called He Ab S337_16H
B55: GpH7-A5/GpH7-B3 variant P238_09D/GpL16-k0 (antibody, human IgG1, kappa)
heavy 1: not shown
heavy 2: not shown
light: B1 light
notes: heterodimerized; mutation in the B3 H chain only; also called He Ab P238_09D
B56: GpH7-A5/GpH7-B3 variant L328_13S/GpL16-k0 (antibody, human IgG1, kappa)
heavy 1: not shown
heavy 2: not shown
light: B1 light
notes: heterodimerized; mutation in the B3 H chain only; also called He Ab L328_13S
B57: GpH7-A5/GpH7-B3 variant T335_10E/GpL16-k0 (antibody, human IgG1, kappa)
heavy 1: not shown
heavy 2: not shown
light: B1 light
notes: heterodimerized; mutation in the B3 H chain only; also called He Ab T335_10E

Biological target: T2, FcγRIIIa extracellular domain with C-terminal His tag (human, UniProt P08637 17-208)
T2 construct: extracellular domain; also called FcgRIIIa; 3a
T2 sequence (P08637 17-208): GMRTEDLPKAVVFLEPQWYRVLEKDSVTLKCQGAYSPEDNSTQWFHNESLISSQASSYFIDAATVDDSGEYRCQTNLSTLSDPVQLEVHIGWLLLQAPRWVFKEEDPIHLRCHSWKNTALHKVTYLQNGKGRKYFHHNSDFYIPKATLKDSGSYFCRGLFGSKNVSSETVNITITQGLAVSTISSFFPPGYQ
Test: SPR, relative to GpH7-B3/GpL16-k0

| Ho/Con_3a | Binder |
| --- | --- |
| 104 % of control (=100) | B1 |
| 106 % of control (=100) | B2 |
| 114 % of control (=100) | B3 |
| 119 % of control (=100) | B4 |
| 107 % of control (=100) | B5 |
| 104 % of control (=100) | B6 |
| 130 % of control (=100) | B7 |
| 2060 % of control (=100) | B8 |
| 101 % of control (=100) | B9 |
| 174 % of control (=100) | B10 |
| 154 % of control (=100) | B11 |
| 115 % of control (=100) | B12 |
| 157 % of control (=100) | B13 |
| 110 % of control (=100) | B14 |
| 104 % of control (=100) | B15 |
| 170 % of control (=100) | B16 |
| 137 % of control (=100) | B17 |
| 220 % of control (=100) | B18 |

| Ho/Con_3a | Binder |
| --- | --- |
| 130 % of control (=100) | B19 |
| 138 % of control (=100) | B20 |
| 255 % of control (=100) | B21 |
| 112 % of control (=100) | B22 |
| 118 % of control (=100) | B23 |
| 118 % of control (=100) | B24 |
| 163 % of control (=100) | B25 |
| 123 % of control (=100) | B26 |
| 118 % of control (=100) | B27 |
| 129 % of control (=100) | B28 |
| 111 % of control (=100) | B29 |
| 134 % of control (=100) | B30 |
| 111 % of control (=100) | B31 |
| 114 % of control (=100) | B32 |
| 278 % of control (=100) | B33 |
| 147 % of control (=100) | B34 |
| 138 % of control (=100) | B35 |
| 103 % of control (=100) | B36 |

Biological target: T1, FcγRIIb extracellular domain with …
Test: SPR (Biacore), captured antibody, FcγRIIb analyte; binding relative to GpH7-A5/GpH7-B3/GpL16-k0 = 100

| He/Con_2b | Binder |
| --- | --- |
| 115 % of control | B37 |
| 218 % of control | B38 |
| 218 % of control | B39 |
| 181 % of control | B40 |
| 147 % of control | B41 |
| 111 % of control | B42 |
| 210 % of control | B43 |
| 106 % of control | B44 |
| 112 % of control | B45 |
| 251 % of control | B46 |
| 312 % of control | B47 |
| 103 % of control | B48 |
| 116 % of control | B49 |
| 144 % of control | B50 |
| 108 % of control | B51 |
| 114 % of control | B52 |
| 108 % of control | B53 |
| 105 % of control | B54 |
| 221 % of control | B55 |
| 149 % of control | B56 |
| 108 % of control | B57 |
